The text below walks through data of patent US20240141072A1 (published 2024).

T1: biotinylated human DLL3 protein expressed as a human IgG1 fusion protein (human, UniProt Q9NYJ7 27-492, limits assumed, biotinylated)
T1 sequence: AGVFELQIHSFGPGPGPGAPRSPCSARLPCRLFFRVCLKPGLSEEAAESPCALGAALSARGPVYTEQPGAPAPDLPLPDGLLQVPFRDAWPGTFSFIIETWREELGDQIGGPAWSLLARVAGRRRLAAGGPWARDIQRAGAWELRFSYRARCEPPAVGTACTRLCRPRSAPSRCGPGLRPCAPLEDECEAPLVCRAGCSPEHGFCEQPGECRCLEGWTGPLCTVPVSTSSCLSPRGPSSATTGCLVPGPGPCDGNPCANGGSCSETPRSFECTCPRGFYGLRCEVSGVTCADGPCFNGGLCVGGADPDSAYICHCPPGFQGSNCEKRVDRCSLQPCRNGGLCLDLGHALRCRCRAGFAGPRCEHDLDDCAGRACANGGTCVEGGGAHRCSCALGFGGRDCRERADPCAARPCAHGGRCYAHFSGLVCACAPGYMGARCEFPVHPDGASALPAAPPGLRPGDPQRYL

B1: 4A05 anti-DLL3 trispecific protein (other)
chain: EVQLVESGGGLVQPGGSLTLSCAASGSSVSFLSLAWYRQAPGKKRELVAGISADGSTDYIDSVKGRFTISRDNAKNSVYLQMNSLRAEDTAVYYCYAYRWKTRRTYWGQGTLVTVSS
notes: not shown: linker 1808, anti-albumin sdAb, linker 1808, anti-CD3 fragment, His6 1819
B2: 4D08 anti-DLL3 trispecific protein (other)
chain: EVQLVESGGGLVQPGGSLTLSCAASGSSVNFLSMAWYRQAPGKKRELVAGISADGSTHYIDSVKGRFTISRDNAKNSVYLQMNSLRAEDTAVYYCYAYRWLTRYTYWGQGTLVTVSS
notes: as for B1
B3: 4B02 anti-DLL3 trispecific protein (other)
chain: EVQLVESGGGLVQPGGSLTLSCAASGSRVSFLSMAWYRQAPGKKRELVAGISADGSTTYIDSVKGRFTISRDNAKNSVYLQMNSLRAEDTAVYYCYAYRWTTRFTYWGQGTLVTVSS
notes: as for B1
B4: 4C08 anti-DLL3 trispecific protein (other)
chain: EVQLVESGGGLVQPGGSLTLSCVASGSQVSFLSMAWYRQAPGKKRELVAGISADGSTDYFDSVKGRFTISRDNAKNSVYLQMNSLRAEDTAVYYCYAYRWTRRYTYWGQGTLVTVSS
notes: as for B1
B5: 4C01 anti-DLL3 trispecific protein (other)
chain: EVQLVESGGGLVQPGGSLTLSCAASGSSVRFLSMAWYRQAPGKKRELVAGISADGSTVYIDSVKGRFTISRDNAKNSVYLQMNSLRAEDTAVYYCYAYRWKTRYTYWGQGTLVTVSS
notes: as for B1
B6: 4A09 anti-DLL3 trispecific protein (other)
chain: EVQLVESGGGLVQPGGSLTLSCAASGSSVKFLSMAWYRQAPGKKRELVAGISADGSTDYIGSVKGRFTISRDNAKNSVYLQMNSLRAEDTAVYYCYAYRWTTRVTYWGQGTLVTVSS
notes: as for B1
B7: 4B01 anti-DLL3 trispecific protein (other)
chain: EVQLVESGGGLVQPGGSLTLSCAASGSSVKFLSMAWYRQAPGKKRELVAGISRDGSTDYIDSVKGRFTISRDNAKNSVYLQMNSLRAEDTAVYYCYAYRWTTRFTYWGQGTLVTVSS
notes: as for B1
B8: 4A07 anti-DLL3 trispecific protein (other)
chain: EVQLVESGGGLVQPGGSLTLSCAASGSKVSFLSMAWYRQAPGKKRELVAGISADGSTLYIDSVKGRFTISRDNAKNSVYLQMNSLRAEDTAVYYCYAYRWTTRYRYWGQGTLVTVSS
notes: as for B1
B9: 4C011 anti-DLL3 trispecific protein (other)
chain: EVQLVESGGGLVQPGGSLTLSCAASGSRVSFLSMAWYRQAPGKKRELVAGISADGSTVYIDSVKGRFTISRDNAKNSVYLQMNSLRAEDTAVYYCYAYRWTRRYTYWGQGTLVTVSS
notes: as for B1
B10: 4C010 anti-DLL3 trispecific protein (other)
chain: EVQLVESGGGLVQPGGSLTLSCAASGSKVSFMSMAWYRQAPGKKRELVAGISADGSTDYIDSVKGRFTISRDNAKNSVYLQMNSLRAEDTAVYYCYAYRWTTRLTYWGQGTLVTVSS
notes: as for B1
B11: 4B04 anti-DLL3 trispecific protein (other)
chain: EVQLVESGGGLVQPGGSLTLSCAASGSSVLFLSMAWYRQAPGKKRELVAGVSSDGSTDYIDSVKGRFTISRDNAKNSVYLQMNSLRAEDTAVYYCYAYRWRTRYTYWGQGTLVTVSS
notes: as for B1
B12: 4E01 anti-DLL3 trispecific protein (other)
chain: EVQLVESGGGLVQPGGSLTLSCAASGSSVSFLSVAWYRQAPGKKRELVAGISRDGSTDYIDSVKGRFTISRDNAKNSVYLQMNSLRAEDTAVYYCYAYRWRTRYTYWGQGTLVTVSS
notes: as for B1
B13: 4B06 anti-DLL3 trispecific protein (other)
chain: EVQLVESGGGLVQPGGSLTLSCAASGSRVSFLSMAWYRQAPGKKRELVAGISADGSTDYFDSVKGRFTISRDNAKNSVYLQMNSLRAEDTAVYYCYAYRWTRRYTYWGQGTLVTVSS
notes: as for B1
B14: 4C02 anti-DLL3 trispecific protein (other)
chain: EVQLVESGGGLVQPGGSLTLSCAASGSKVSFLSMAWYRQAPGKKRELVAGISADGSTTYIDSVKGRFTISRDNAKNSVYLQMNSLRAEDTAVYYCYAYRWTTRFTYWGQGTLVTVSS
notes: as for B1
B15: 4C05 anti-DLL3 trispecific protein (other)
chain: EVQLVESGGGLVQPGGSLTLSCAASGSSVSNLSMAWYRQAPGKKRELVAGISADGSTAYIDSVKGRFTISRDNAKNSVYLQMNSLRAEDTAVYYCYAYRWTTRRTYWGQGTLVTVSS
notes: as for B1
B16: 4A010 anti-DLL3 trispecific protein (other)
chain: EVQLVESGGGLVQPGGSLTLSCAASGSSVRFLSMAWYRQAPGKKRELVAGISADGSTVYIDSVKGRFTISRDNAKNSVYLQMNSLRAEDTAVYYCYAYRWTTRYKYWGQGTLVTVSS
notes: as for B1
B17: 4D01 anti-DLL3 trispecific protein (other)
chain: EVQLVESGGGLVQPGGSLTLSCAASGSSVRFLSMAWYRQAPGKKRELVAGISADGSTVYIDSVKGRFTISRDNAKNSVYLQMNSLRAEDTAVYYCYAYRWTTRRTYWGQGTLVTVSS
notes: as for B1
B18: 4D06 anti-DLL3 trispecific protein (other)
chain: EVQLVESGGGLVQPGGSLTLSCAASGSSVKFLSMAWYRQAPGKKRELVAGISPDGSTDYIDSVKGRFTISRDNAKNSVYLQMNSLRAEDTAVYYCYAYRWTTRYRYWGQGTLVTVSS
notes: as for B1
B19: 4D02 anti-DLL3 trispecific protein (other)
chain: EVQLVESGGGLVQPGGSLTLSCAASGSKVSFLSMAWYRQAPGKKRELVAGISARGSTDYIDSVKGRFTISRDNAKNSVYLQMNSLRAEDTAVYYCYAYQWTTRYTYWGQGTLVTVSS
notes: as for B1
B20: 4B09 anti-DLL3 trispecific protein (other)
chain: EVQLVESGGGLVQPGGSLTLSCAASGSSVSFLSMAWYRQAPGKKRELVAGISADGSTDYISSVKGRFTISRDNAKNSVYLQMNSLRAEDTAVYYCYAYSWTTRYTYWGQGTLVTVSS
notes: as for B1
B21: 4B08 anti-DLL3 trispecific protein (other)
chain: EVQLVESGGGLVQPGGSLTLSCAASGSSVSFMSMAWYRQAPGKKRELVAGISADGSTDYIASVKGRFTISRDNAKNSVYLQMNSLRAEDTAVYYCYAYRWTTRSTYWGQGTLVTVSS
notes: as for B1
B22: 4A08 anti-DLL3 trispecific protein (other)
chain: EVQLVESGGGLVQPGGSLTLSCAASGSSVSFLSMAWYRQAPGKKRELVAGISADGSTNYIDSVKGRFTISRDNAKNSVYLQMNSLRAEDTAVYYCYAYRWRTRYTYWGQGTLVTVSS
notes: as for B1
B23: 4C07 anti-DLL3 trispecific protein (other)
chain: EVQLVESGGGLVQPGGSLTLSCAASGSKVSFLSMAWYRQAPGKKRELVAGISADGSKDYIDSVKGRFTISRDNAKNSVYLQMNSLRAEDTAVYYCYAYRWTTRLTYWGQGTLVTVSS
notes: as for B1
B24: 4B05 anti-DLL3 trispecific protein (other)
chain: EVQLVESGGGLVQPGGSLTLSCAASGSRVSFLSMAWYRQAPGKKRELVAGISADGHTDYIDSVKGRFTISRDNAKNSVYLQMNSLRAEDTAVYYCYAYRWTTRYTHWGQGTLVTVSS
notes: as for B1
B25: 4A011 anti-DLL3 trispecific protein (other)
chain: EVQLVESGGGLVQPGGSLTLSCAASGSKVSFLSMAWYRQAPGKKRELVAGISADGSTTYIDSVKGRFTISRDNAKNSVYLQMNSLRAEDTAVYYCYAYRWKTRYTYWGQGTLVTVSS
notes: as for B1
B26: 4D05 anti-DLL3 trispecific protein (other)
chain: EVQLVESGGGLVQPGGSLTLSCAASGSSSSFLSMAWYRQAPGKKRELVAGISADGSTVYIDSVKGRFTISRDNAKNSVYLQMNSLRAEDTAVYYCYAYRWTTRRTYWGQGTLVTVSS
notes: as for B1
B27: 4D03 anti-DLL3 trispecific protein (other)
chain: EVQLVESGGGLVQPGGSLTLSCAASGSSVRFLSMAWYRQAPGKKRELVAGISATGSTDYIDSVKGRFTISRDNAKNSVYLQMNSLRAEDTAVYYCYAYRWTRRYTYWGQGTLVTVSS
notes: as for B1
B28: 4D010 anti-DLL3 trispecific protein (other)
chain: EVQLVESGGGLVQPGGSLTLSCAASGSSVSFLSMAWYRQAPGKKRELVAGISADGSTDYIHSVKGRFTISRDNAKNSVYLQMNSLRAEDTAVYYCYAYRWRTRYTYWGQGTLVTVSS
notes: as for B1
B29: 4D04 anti-DLL3 trispecific protein (other)
chain: EVQLVESGGGLVQPGGSLTLSCAASGSSVSFLSIAWYRQAPGKKRELVAGISKDGSTDYIDSVKGRFTISRDNAKNSVYLQMNSLRAEDTAVYYCYAYRWTTRMTYWGQGTLVTVSS
notes: as for B1
B30: 4C03 anti-DLL3 trispecific protein (other)
chain: EVQLVESGGGLVQPGGSLTLSCAASGSKVSFMSMAWYRQAPGKKRELVAGISVDGSTDYIDSVKGRFTISRDNAKNSVYLQMNSLRAEDTAVYYCYAYRWRTRYTYWGQGTLVTVSS
notes: as for B1
B31: 4A06 anti-DLL3 trispecific protein (other)
chain: EVQLVESGGGLVQPGGSLTLSCAASGSSVRFLSMAWYRQAPGKKRELVAGISRDGSTDYIDSVKGRFTISRDNAKNSVYLQMNSLRAEDTAVYYCYAYRWTTRRTYWGQGTLVTVSS
notes: as for B1

The test addresses T1, biotinylated human DLL3 protein …. The test is described as follows: Octet BLI, single 50 nM. The method, boiled down: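 Analyte: trispecific anti-DLL3 proteins in conditioned medium, concentration known; ligand: captured DLL3 fusion; output: binding affinity.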
Take B1: the Kd (as a rule, the equilibrium constant for the complex coming apart) turned out to be 9.4 nM.

The molecule B2 came in with a Kd of 5.9 nM.

On to B3, for which the Kd was found to be 7.1 nM.

In turn, B4 registered a Kd of 16 nM.

Turning to B5, the Kd was found to be 5.1 nM.

For B6, binding was put at a Kd of 9 nM.

On to B7, for which the Kd turned out to be 11 nM.

Regarding B8, the Kd amounted to 9.8 nM.

Take B9: the Kd came to 6 nM.

Consider B10, for which the Kd was determined as 7 nM.

In turn, B11 came in with a Kd of 12 nM.

B12: the affinity, expressed as Kd, was 11 nM.

With B13, binding was put at a Kd of 16 nM.

With B14, the Kd came to 6.8 nM.

As for B15, binding was put at a Kd of 8.3 nM.

Turning to B16, the Kd came to 2.3 nM.

Molecule B17 yielded a Kd of 3.7 nM.

Regarding B18, the Kd was found to be 7.5 nM.

As to B19, the Kd came out at 30 nM.

Consider B20, for which the Kd was found to be 5.4 nM.

B21 had a Kd of 10 nM.

In the case of B22, the Kd came out at 24 nM.

In turn, B23 displayed a Kd of 7.5 nM.

In turn, B24 gave a Kd of 18 nM.

As to B25, the Kd was found to be 5.6 nM.

In turn, B26 displayed a Kd of 6.5 nM.

The molecule B27 showed a Kd of 26 nM.

Take B28: the Kd worked out at 9.9 nM.

With B29, the Kd was 8.6 nM.

In turn, B30 gave a Kd of 6.6 nM.

As to B31, the Kd turned out to be 13 nM.
